Test results published in the RNAGym collection of RNA variant scans (doi:10.7554/elife.80360).

B1: HDV Ribozyme (parent)
chain: GGCCGGCAUGGUCCCAGCCUCCUCGCUGGCGCCGGCUGGGCAACAUUCCGAGGGGACCGUCCCCUCGGUAAUGGCGAAUGGGACCCA

Variants of: B1
Assay: self-cleavage, relative activity (ratio to wild type); higher = more cleavage; co-transcriptional

**Q.** With GGCCGGCAUGGUCCCAGCCUCCUGGCUGGCGCCGGCUGGGCAACAUUCCGAGGGGACCGUCCCCUCGGUAAUGGCGACUGGGACCCA [C24G A78C] as the variant, how does the self-cleavage read?
**A.** 0.0241

**Q.** Which self-cleavage does the source give for GGCCGGCAUGGUCCCAGCCUCCUGGCUGGCGCCGGCUGGGCAACAUUCCGAGGGGACCGUCCCCUCGGUAAUGGCGAAUGGGACCGA [C24G C86G] here?
**A.** 0.112

**Q.** With GGCCGGCAUGGUCCCAGCCUCCUGGCUGGCGCCGGCUGGGCAACAUUCCGAGGGGACCGUCCCCUCGGUAAUGGCGAAUGGGACCAA [C24G C86A] as the variant, how does the self-cleavage read?
**A.** 0.106

**Q.** For GGCCGGCAUGGUCCCAGCCUCCUGGCUGGCGCCGGCUGGGCAACAUUCCGAGGGGACCGUCCCCUCGGUAAUGGCGCAUGGGACCCA [C24G A77C], which self-cleavage is on record?
**A.** 0.0386

**Q.** Which self-cleavage does the source give for GGCCGGCAUGGUCCCAGCCUCCUGGCUGGCGCCGGCUGGGCAACAUUCCGAGGGGACCGUCCCCUCGGUAAUGGCGGAUGGGACCCA [C24G A77G] here?
**A.** 0.298

**Q.** With GGCCGGCAUGGUCCCAGCCUCCUGGCUGGCGCCGGCUGGGCAACAUUCCGAGGGGACCGUCCCCUCGGUAAUGGCGUAUGGGACCCA [C24G A77U] as the variant, how does the self-cleavage read?
**A.** 0.111

**Q.** Which self-cleavage does the source give for GGCCGGCAUGGUCCCAGCCUCCUGGCUGGCGCCGGCUGGGCAACAUUCCGAGGGGACUGUCCCCUCGGUAAUGGCGAAUGGGACCCA [C24G C58U] here?
**A.** 0.117

**Q.** For GGCCGGCAUGGUCCCAGCCUCCUGGCUGGCGCCGGCUGGGCAACAUUCCGAGGGGACGGUCCCCUCGGUAAUGGCGAAUGGGACCCA [C24G C58G], which self-cleavage is on record?
**A.** 0.108

**Q.** With GGCCGGCAUGGUCCCAGCCUCCUGGCUGGCGCCGGCUGGGCAACAUUCCGAGGGGACAGUCCCCUCGGUAAUGGCGAAUGGGACCCA [C24G C58A] as the variant, how does the self-cleavage read?
**A.** 0.121

**Q.** With GGCCGGCAUGGUCCCAGCCUCCUGGCUGGCGCCGGCUGGGCAACAUUCCGAGGGGACCGUCCCCUUGGUAAUGGCGAAUGGGACCCA [C24G C66U] as the variant, how does the self-cleavage read?
**A.** 0.166

**Q.** For GGCCGGCAUGGUCCCAGCCUCCUGGCUGGCGCCGGCUGGGCAACAUUCCGAGGGGACCGUCCCCUGGGUAAUGGCGAAUGGGACCCA [C24G C66G], which self-cleavage is on record?
**A.** 0.13

**Q.** With GGCCGGCAUGGUCCCAGCCUCCUGGCUGGCGCCGGCUGGGCAACAUUCCGAGGGGAACGUCCCCUCGGUAAUGGCGAAUGGGACCCA [C24G C57A] as the variant, how does the self-cleavage read?
**A.** 0.0432

**Q.** Which self-cleavage does the source give for GGCCGGCAUGGUCCCAGCCUCCUGGCUGGCGCCGGCUGGGCAACAUUCAGAGGGGACCGUCCCCUCGGUAAUGGCGAAUGGGACCCA [C24G C49A] here?
**A.** 0.0804

**Q.** For GGCCGGCAUGGUCCCAGCCUCCUGGCUGGCGCCGGCUGGGCAACAUUCGGAGGGGACCGUCCCCUCGGUAAUGGCGAAUGGGACCCA [C24G C49G], which self-cleavage is on record?
**A.** 0.0314

**Q.** With GGCCGGCAUGGUCCCAGCCUCCUGGCUGGCGCCGGCUGGGCAACAUUCCGAGGGGACCGUCCCUUCGGUAAUGGCGAAUGGGACCCA [C24G C64U] as the variant, how does the self-cleavage read?
**A.** 0.0886

**Q.** For GGCCGGCAUGGUCCCAGCCUCCUGGCUGGCGCCGGCUGGGCAACAUUCCGAGGGGACCGUCCCGUCGGUAAUGGCGAAUGGGACCCA [C24G C64G], which self-cleavage is on record?
**A.** 0.131

**Q.** For GGCCGGCAUGGUCCCAGCCUCCUGGCUGGCGCCGGCUGGGCAACAUUCCGAGGGGACCGUCCCCUCGGUAAUGGGGAAUGGGACCCA [C24G C75G], which self-cleavage is on record?
**A.** 0.13

**Q.** For GGCCGGCAUGGUCCCAGCCUCCUGGCUGGCGCCGGCUGGGCAACAUUCCGAGGGGACCGUCCCCUCGGUAAUGGUGAAUGGGACCCA [C24G C75U], which self-cleavage is on record?
**A.** 0.0554

**Q.** For GGCCGGCAUGGUCCCAGCCUCCUGGCUGGCGCCGGCUGGGCAACAUUCCGAGGGGACCGUCCCCUCGGUAAUGGAGAAUGGGACCCA [C24G C75A], which self-cleavage is on record?
**A.** 0.0277

**Q.** With GGCCGGCAUGGUCCCAGCCUCCUGGCUGGCGCCGGCUGGGCAACAUUACGAGGGGACCGUCCCCUCGGUAAUGGCGAAUGGGACCCA [C24G C48A] as the variant, how does the self-cleavage read?
**A.** 0.0519

**Q.** Which self-cleavage does the source give for GGCCGGCAUGGUCCCAGCCUCCUGGCUGGCGCCGGCUGGGCAACAUUUCGAGGGGACCGUCCCCUCGGUAAUGGCGAAUGGGACCCA [C24G C48U] here?
**A.** 0.14

**Q.** For GGCCGGCAUGGUCCCAGCCUCCUGGCUGGCGCCGGCUGGGCAACAUUCCGAGGGGACCGUCCCCUCGGUAAUGGCGAAUGGGUCCCA [C24G A83U], which self-cleavage is on record?
**A.** 0.141

**Q.** With GGCCGGCAUGGUCCCAGCCUCCUGGCUGGCGCCGGCUGGGCAACAUUCCGAGGGGACCGUCCCCUCGGUAAUGGCGAAUGGGCCCCA [C24G A83C] as the variant, how does the self-cleavage read?
**A.** 0.0923

**Q.** With GGCCGGCAUGGUCCCAGCCUCCUGGCUGGCGCCGGCUGGGCAACAUUCCGAGGGGACCGUCCCCUCGGUAUUGGCGAAUGGGACCCA [C24G A71U] as the variant, how does the self-cleavage read?
**A.** 0.106

**Q.** With GGCCGGCAUGGUCCCAGCCUCCUGGCUGGCGCCGGCUGGGCAACAUUCCGAGGGGACCGUCCCCUCGGUAGUGGCGAAUGGGACCCA [C24G A71G] as the variant, how does the self-cleavage read?
**A.** 0.102

**Q.** With GGCCGGCAUGGUCCCAGCCUCCUGGCUGGCGCCGGCUGGGCAACAUUCCGAGGGGACCGUCCCCUCGGUACUGGCGAAUGGGACCCA [C24G A71C] as the variant, how does the self-cleavage read?
**A.** 0

**Q.** For GGCCGGCAUGGUCCCAGCCUCCUGGCUGGCGCCGGCUAGGCAACAUUCCGAGGGGACCGUCCCCUCGGUAAUGGCGAAUGGGACCCA [C24G G38A], which self-cleavage is on record?
**A.** 0.0631

**Q.** With GGCCGGCAUGGUCCCAGCCUCCUGGCUGGCGCCGGCUCGGCAACAUUCCGAGGGGACCGUCCCCUCGGUAAUGGCGAAUGGGACCCA [C24G G38C] as the variant, how does the self-cleavage read?
**A.** 0.0791

**Q.** Which self-cleavage does the source give for GGCCGGCAUGGUCCCAGCCUCCUGGCUGGCGCAGGCUGGGCAACAUUCCGAGGGGACCGUCCCCUCGGUAAUGGCGAAUGGGACCCA [C24G C33A] here?
**A.** 0.244

**Q.** With GGCCGGCAUGGUCCCAGCCUCCUGGCUGGCGCGGGCUGGGCAACAUUCCGAGGGGACCGUCCCCUCGGUAAUGGCGAAUGGGACCCA [C24G C33G] as the variant, how does the self-cleavage read?
**A.** 0.0475

**Q.** Which self-cleavage does the source give for GGCCGGCAUGGUCCCAGCCUCCUGGCUGGCGCCGGCUGGGCAACAUUCCCAGGGGACCGUCCCCUCGGUAAUGGCGAAUGGGACCCA [C24G G50C] here?
**A.** 0.0755

**Q.** For GGCCGGCAUGGUCCCAGCCUCCUGGCUGGCGCCGGCUGGGCAACAUUCCUAGGGGACCGUCCCCUCGGUAAUGGCGAAUGGGACCCA [C24G G50U], which self-cleavage is on record?
**A.** 0.149
